From patent US20250340646A1 (ELPIS BIOPHARMACEUTICALS, published 2025)
Where a chain is given by its changes, count along the chain named. Names and notes keep the numbering of the source.

T1: recombinant His-tagged human IL-2Rβ (human, UniProt P14784 27-240, limits assumed)
T1 construct: also called IL-2Rβ-HIS; IL-15Rβ-HIS
T1 sequence (looked up): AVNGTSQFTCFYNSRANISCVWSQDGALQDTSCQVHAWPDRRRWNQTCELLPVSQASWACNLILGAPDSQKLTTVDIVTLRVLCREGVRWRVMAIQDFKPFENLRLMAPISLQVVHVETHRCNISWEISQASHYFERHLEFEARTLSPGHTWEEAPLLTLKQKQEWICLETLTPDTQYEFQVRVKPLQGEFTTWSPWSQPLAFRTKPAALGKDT

B1: IL-2/anti-PD-L1 scFv Fc EP290/EP326 (bispecific antibody)
chain 1: not shown
chain 2: QVQLVQSGAEVKKPGSSVKVSCKASGGTFSSYAISWVRQAPGQGLEWMGGIIPIFGTANYAQKFQGRVTITADESTSTAYMELSSLRSEDTAVYYCARDKWYGSAWRGDYWGQGTLVTVSSGGGGSGGGGSGGGGSQSVLTQPPSASGTPGQRVTISCSGSYSNIGSNFVNWYQQLPGTAPKLLIHFNNQRPSGVPDRFSGSRSGTSASLAISGLQSEDEADYFCSTWDDSLKGPIFGGGTKLTVLDKTHTCPPCPAPEAAGGPSVFLFPPKPKDTLMISRTPEVTCVVVDVSHEDPEVKFNWYVDGVEVHNAKTKPREEQYNSTYRVVSVLTVLHQDWLNGKEYKCKVSNKALGAPIEKTISKAKGQPREPQVCTLPPSRDELTKNQVSLSCAVKGFYPSDIAVEWESNGQPENNYKTTPPVLDSDGSFKLVSKLTVDKSRWQQGNVFSCSVMHEALHNHYTQKSLSLSPGK
notes: IL2-Fc knob with 2019EP69-F03 scFv-Fc hole (EP326)
B2: IL-2/anti-PD-L1 scFv Fc EP415/EP326 (bispecific antibody)
chain 1: not shown
chain 2: B1 chain 2
notes: IL2 EP337
B3: IL-2/anti-PD-L1 scFv Fc EP417/EP326 (bispecific antibody)
chain 1: not shown
chain 2: B1 chain 2
notes: IL2 EP339
B4: IL-2/anti-PD-L1 scFv Fc EP412/EP326 (bispecific antibody)
chain 1: not shown
chain 2: B1 chain 2
notes: IL2 with T3A/K35L/R38D/F42R
B5: IL-2/anti-PD-L1 scFv Fc EP291/EP326 (bispecific antibody)
chain 1: not shown
chain 2: B1 chain 2
notes: IL2 EP003
B6: IL-2/anti-PD-L1 scFv Fc EP297/EP326 (bispecific antibody)
chain 1: not shown
chain 2: B1 chain 2
notes: IL2 EP001
B7: IL-2/anti-PD-L1 scFv Fc EP416/EP326 (bispecific antibody)
chain 1: not shown
chain 2: B1 chain 2
notes: IL2 EP338
B8: IL-2/anti-PD-L1 scFv Fc EP414/EP326 (bispecific antibody)
chain 1: not shown
chain 2: B1 chain 2
notes: IL2 EP003 carrying K35L/R38D/F42R
B9: IL-2/anti-PD-L1 scFv Fc EP419/EP326 (bispecific antibody)
chain 1: not shown
chain 2: B1 chain 2
notes: IL2 EP343
B10: 2018EP161-F08 scFv (scFv, V domains shown)
VH: not shown
VL: DIVMTQSPSSLSASVGDRVTITCRASQTVSTYINWYQQRSGKGPKLLIFDASRLQSGAPSRFSGSGSGTEFTLTITSLQPDDSATYYCQQSYRIPLSFGGGTKVEIR
B11: 2018EP171-H02 scFv (scFv, V domains shown)
VH: QVQLVQSGAEVKKPGSSVKVSCKASGGTFSSYAISWVRQAPGQGLEWMGGIIPIFGTANYAQKFQGRVTITADESTSTAYMELSSLRSEDTAVYYCARDKGYGSGWRGDYWGQGTLVTVSS
VL: QSVLTQPPSASGTPGQRVTISCSGSYSNIGSNFVNWYQQLPGTAPKLLIHFNNQRPSGVPDRFSGSRSGTSASLAISGLQSEDEADYFCSTWDDSLKGPIFGGGTKLTVL
B12: 2018EP172-F10 scFv (scFv, V domains shown)
VH: B11 VH with V2M
VL: B11 VL with N52D
B13: 2018EP164-F04 scFv (scFv, V domains shown)
VH: QVQLQQWGAGLLKPSETLSLTCAVYGGSFSGYYWSWIRQPPGKGLEWIGEINHSGSTNYNPSLKSRVTISVDTSKNQFSLKLSSVTAADTAVYYCARGRRLRYFDWAAYNWFDPWGQGTLVTVSS
VL: QSALTQDPAVSVALGQTVRITCQGDSLRSHYASWYQQKPGQAPVVVVYDNSDRPSGIPDRFSGSNSGNTATLTISRVEVGDEADYYCQVWDSSSDHYVFGTGTKV
B14: 2018EP173-H11 scFv (scFv, V domains shown)
VH: QVQLVQSGGGLVKPGGSLRLSCAASGFTFSSYSMNWVRQAPGKGLEWVSSISSSSSYIYYADSVKGRFTISRDNAKNSLYLQMNSLKAEDTAVYYCARDSLQWLALDYWGQGTLVTVSS
VL: QPVLTQPPSVSVAPGETATITCGGNNIGRKSVHWYLQKPGQAPVLVIGHDTDRPSGIPARFSGSNSGNTATLTINRVEAGDEADYYCQVWDTSGHHYVFGTGTKVTVL
notes: not shown: scFv linker and domain order of the library scFv
B15: 2019EP69-H10 scFv (scFv, V domains shown)
VH: B11 VH with G101W, Y102F
VL: B11 VL
B16: 2019EP69-F02 scFv (scFv, V domains shown)
VH: B11 VH with G101W
VL: B11 VL
B17: 2019EP69-E10 scFv (scFv, V domains shown)
VH: B11 VH with Y102F
VL: B11 VL

The binders below were run against T1, recombinant His-tagged human IL-2Rβ (assay: ELISA, coated His-tagged IL-2Rβ).
Protocol: For monovalent IL-2 Fc-fusion proteins, recombinant His-tagged human IL-2Rα and IL-2Rβ were added in 25 μL of 1×PBS to wells of 384-well plate and incubated overnight at 4° C. to coat the plates. Plates were washed three times with 0.05% Tween20/1×PBS. Plates were blocked with 100 μL of SuperBlock for 1 hr at RT and then washed 3 times with 0.05% Tween20/1×PBS. IL-2 mutants were diluted in 0.05% Tween 20/1×PBS from 1000 nM to 0 nM and added to plates for 2 hrs at room temperature. Plates were then washed 6 times with 0.05% Tween20/1×PBS. Anti-HisTag-HRP was diluted 1:5000 in 0.05% Tween20/1×PBS and added to plates for 1 hr at RT. Plates were then washed 6 times with 0.05% Tween 20/1×PBS, and TMB was added to develop blue color. Reactions were stopped with 2N […] and light absorbance at 450 nm was read on a BioTek plate reader. Absorbance versus IL-2 concentration is graphed for human IL-2Rα and IL-2Rβ. […]
Work on B1 yielded an EC50 of 4.01 nM. B2 showed an EC50 of 1.33 nM. B3 gave an EC50 of 0.515 nM. B4 was tested, and the EC50 was 2.18 nM. B5 gave an EC50 of 0.552 nM. In the case of B6, the EC50 is reported as 0.43 nM. B7 gave an EC50 of 1.24 nM. For B8, the EC50 was 0.51 nM. Binder B9 has an EC50 of 0.613 nM.

What follows are binders tested against T2, full-length human PD-L1 on K562 cells (human, UniProt Q9NZQ7 19-290) (assay: FACS, PD-L1/K562 cells).
T2 construct: also called PD-L1/K562; cell surface human PD-L1
Protocol: (§1) Cells were spun down at 1200 rpm for 5 minutes at 4° C. to remove primary antibodies. Cells were then washed once with 200 μL of full medium per well. […] Samples were spun down at 1200 rpm for 5 minutes at 4° C. and washed twice with 200 μL of 1×PBS per well. Samples were reconstituted in 200 μL of 1×PBS and were read on Attune NxT cytometer.
B10 was tested, and the EC50 was 7.72 nM. B11 was tested, and the EC50 was 0.25 nM. For B12, the EC50 was < 1 nM. For B13, the EC50 was < 1 nM. B14 gave an EC50 of 5.1 nM.

What follows are binders tested against T1, recombinant His-tagged human IL-2Rβ (assay: SPR, Protein A capture, IL-2Rβ-HIS analyte).
Protocol: (§2) The assay was run with Biacore T200 control software version 2.0. For each cycle, 1 μg/mL of anti-hPD-L1/IL-2 was captured for 60 seconds at flow rate of 10 μL/min on flow cell 2 in 1×HBSP buffer on Protein A sensor chip. […] The flow cells were then regenerated with Glycine pH2 for 60 seconds at flow rate of 30 μL/min. […] The specific binding response unit was derived from subtraction of binding to reference flow cell 1 from antibody captured flow cell 2.
With B1 the Kd was 57.4 nM. B2 gave a Kd of 6.17 nM. B3 showed a Kd of 21.9 nM. B4 gave a Kd of 12000 nM. B5 showed a Kd of 1.87 nM. B6 showed a Kd of 3.32 nM, a koff of 0.00854 s⁻¹ and a kon of 2.57e+06 M⁻¹ s⁻¹. With B7 the Kd was 26.5 nM.

What follows are binders tested against T3, PD-L1 biotinylated (PD-1/PD-L1 TR-FRET assay kit, BPS 72038) (Homo sapiens (Human), UniProt Q9NZQ7 19-238, biotinylated; site not stated) (assay: HTRF competition, competitor PD-1-Eu).
T3 construct: Kit reagent
Protocol: Briefly, 1× Immuno buffer 1 was made. […] For each well in 384-well plate, serial diluted scFvs and regents were added according to manufacturer's recommended volume. Samples were incubated at room temperature for 1.5 hours then the fluorescent intensity was read with Biotek Neo2 plate reader using manufacture's instrument setting for the assay.
In the case of B1, the IC50 is reported as 176 nM. Work on B2 yielded an IC50 of 2280 nM. B4 was tested, and the IC50 was 134 nM.

What follows are binders tested against biotinylated PD-L1 (Homo sapiens (Human), UniProt Q9NZQ7 19-238, biotinylated; site not stated) (assay: ELISA, anti-human Fc capture, biotinylated PD-L1).
Protocol: A 384 well plate was immobilized with anti-human Fc at final concentration of 2 μg/mL in 1×PBS in total volume of 25 μL per well. The plate was incubated overnight at 4C followed by blocking with 80 μL of superblock per well for 1 hour. […] In between each step, the plate was washed 3 times with 1×PBST in a plate washer. The plate was then developed with 25 μL of TMB substrate for 5 min and stopped by adding 25 μL of 2N sulfuric acid. The plate was read at OD450 nm Biotek plate reader and the binding correlation was plotted with Prism 8.1 software. The ELISA binding assays of the antibodies to IL-2Rα and IL-2Rβ receptors were performed as described in Example 6.
Binder B1 has an EC50 of 0.141 nM. B2 showed an EC50 of 0.227 nM. Binder B3 has an EC50 of 0.188 nM. For B4, the EC50 was 0.156 nM. B5 showed an EC50 of 0.246 nM. Work on B6 yielded an EC50 of 0.108 nM. B7 showed an EC50 of 0.298 nM. With B8 the EC50 was 0.212 nM. B9 was tested, and the EC50 was 0.206 nM.

Biological target: T2, full-length human PD-L1 on K562 cells
Test: FACS, PD-L1/K562 cells
Remark: another data set of the same source
Protocol: as §1
The production, the binding, and all of the characterization assays for selected affinity matured scFv clones were performed as described above.
For B11, the EC50 was 0.25 nM. B15 was tested, and the EC50 was 0.0799 nM. B16 gave an EC50 of 2 nM. In the case of B17, the EC50 is reported as 0.207 nM.

These binders were tested against T4, human PD-L1-HIS tagged recombinant protein (human, UniProt Q9NZQ7 19-238) (assay: SPR, Protein A capture, PD-L1-HIS analyte).
T4 construct: also called hPD-L1-HIS; PD-L1 HIS tagged protein
Protocol: as §2
With B1 the Kd was 0.464 nM. In the case of B2, the Kd is reported as 0.465 nM. Work on B3 yielded a Kd of 0.429 nM. In the case of B4, the Kd is reported as 0.593 nM. Binder B5 has a Kd of 0.34 nM. Work on B6 yielded a Kd of 0.19 nM, a koff of 0.000149 s⁻¹ and a kon of 782000 M⁻¹ s⁻¹. Binder B7 has a Kd of 0.39 nM.

The binders below were run against PD-L1 on PD-L1 aAPC/CHOK1 cells (Promega J1250) (assay: cell-based or functional assay).
With B1 the “NFAT reporter EC50” value was 2.3 nM. B2 was tested, and the “NFAT reporter EC50” value was 3.46 nM. B4 was tested, and the “NFAT reporter EC50” value was 2.61 nM.
